Assay results taken from US20190038774A1.

Target: MHCI antigen presented on MNs
Assay: cell-based or functional assay

Substance: killer cell immunoglobulin-like receptor 3DL2 (KIR3DL2) (from UniProt P43630 22-455)
- MN death on co-culture with kir3dl2 shRNA treated ALS astrocytes, day 7: 50%
